Reference: patent publication US8992886B2, “Cyclic peptide analogues for non-invasive imaging of pancreatic beta-cells” (Board of Regents, the University of Texas System, priority 2009, dated 2015)
Bridge positions count the residues as written; N and C are the ends. Square brackets hold non-standard residues; d marks the D form. Peptide text beside a SMILES is read from it. * marks the point of attachment. X1 = O=C(O)CN1CCN(CC(=O)O)CCN(CC(=O)NCCN2C(=O)CC(*)C2=O)CCN(CC(=O)O)CC1; Ahx = NCCCCCC(=O)O

Columns and labels:
[1] = biological target: GLP-1R (Homo sapiens, UniProt P43220); test: cAMP accumulation in HEK293 cells stably expressing GLP-1R-GFP; format: cell-based; design: GFP; expressed in transfected cells; host or cells: HEK293
GLP-1R, sequence (P43220 24-463): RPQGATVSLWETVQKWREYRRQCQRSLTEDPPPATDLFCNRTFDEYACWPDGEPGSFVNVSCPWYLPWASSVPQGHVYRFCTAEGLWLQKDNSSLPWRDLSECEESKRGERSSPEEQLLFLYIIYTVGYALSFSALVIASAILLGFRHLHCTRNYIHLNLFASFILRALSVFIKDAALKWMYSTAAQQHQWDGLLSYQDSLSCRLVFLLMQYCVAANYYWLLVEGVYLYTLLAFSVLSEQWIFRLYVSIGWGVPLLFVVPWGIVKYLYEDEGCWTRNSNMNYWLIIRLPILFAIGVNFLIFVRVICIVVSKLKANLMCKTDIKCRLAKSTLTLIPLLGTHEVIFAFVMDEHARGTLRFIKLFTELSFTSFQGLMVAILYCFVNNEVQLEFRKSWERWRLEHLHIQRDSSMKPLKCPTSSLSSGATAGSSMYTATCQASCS
Source text: In all cases, reactions were stopped with 1.2 M trichloroacetic acid and cAMP was isolated by the two column chromatographic method.

[2] = in vivo; design: species or system Sprague-Dawley rats; settings: Sprague-Dawley, rat, iv, total radioactivity
Protocol: Given this encouraging in vitro result, the tissue distribution of both conjugates in normal Sprague-Dawley rats was examined. […] The radiolabeled compounds were diluted with saline and be injected into rats (n=4 at each time point) via the tail vein. The animal number at each time point was chosen for statistical analysis. […] At the selected post-injection time points, animals were sacrificed, and organs of interest removed, weighed, and counted. The percent injected dose per gram (% ID/g) and percent injected dose per organ (% ID/organ) was calculated by comparison to a weighed, counted standard. Pharmacokinetic parameters were estimated by using either one- or two-compartment model.

CC[C@H](C)[C@H](NC(=O)[C@H](Cc1ccccc1)NC(=O)[C@H](CCC(=O)O)NC(=O)[C@H](CCCCN)NC(=O)[C@H](C)NC(=O)[C@H](C)NC(=O)[C@H](CCC(N)=O)NC(=O)CNC(=O)[C@H](CCC(=O)O)NC(=O)[C@@H]1CCCCNC(=O)CC[C@H](NC(=O)[C@H](CC(=O)O)NC(=O)[C@H](CO)NC(=O)[C@@H](NC(=O)[C@H](Cc2ccccc2)NC(=O)[C@@H](NC(=O)CNC(=O)[C@H](CCC(=O)O)NC(=O)[C@@H](C)NC(=O)[C@@H](N)Cc2c[nH]cn2)[C@@H](C)O)[C@@H](C)O)C(=O)N[C@@H](CO)C(=O)N[C@@H](CO)C(=O)N[C@@H](Cc2ccc(O)cc2)C(=O)N1)C(=O)N[C@H]1CCC(=O)NCCCC[C@@H](C(=O)NCC(=O)N[C@@H](CCCNC(=N)N)C(=O)NCCCCCC(=O)N[C@@H](CSC2CC(=O)N(CCNC(=O)CN3CCN(CC(=O)O)CCN(CC(=O)O)CCN(CC(=O)O)CC3)C2=O)C(N)=O)NC(=O)[C@H](C(C)C)NC(=O)[C@H](CC(C)C)NC(=O)[C@H](Cc2c[nH]c3ccccc23)NC1=O (stereo partly drawn) [EM2196, HXEGTFTSDESSYKEGQAAKEFIEWLVKG R, wherein X is D-Ala] (H-H[dA]EGTFTSDESSYKEGQAAKEFIEWLVKGR[Ahx]C(X1)-NH2; lactam 10-14, 24-28)
EC50 [1]: ~1 nM

CC[C@H](C)[C@H](NC(=O)[C@H](Cc1ccccc1)NC(=O)[C@H](CCC(=O)O)NC(=O)[C@H](CCCCN)NC(=O)[C@H](C)NC(=O)[C@H](C)NC(=O)[C@H](CCC(N)=O)NC(=O)CNC(=O)[C@H](CCC(=O)O)NC(=O)[C@H](CC(C)C)NC(=O)[C@H](Cc1ccc(O)cc1)NC(=O)[C@H](CO)NC(=O)[C@H](CO)NC(=O)[C@@H](NC(=O)[C@H](CC(=O)O)NC(=O)[C@H](CO)NC(=O)[C@@H](NC(=O)[C@H](Cc1ccccc1)NC(=O)[C@@H](NC(=O)CNC(=O)[C@H](CCC(=O)O)NC(=O)[C@H](C)NC(=O)[C@@H](N)Cc1c[nH]cn1)[C@@H](C)O)[C@@H](C)O)C(C)C)C(=O)N[C@@H](C)C(=O)N[C@@H](Cc1c[nH]c2ccccc12)C(=O)N[C@@H](CC(C)C)C(=O)N[C@H](C(=O)N[C@@H](CCCCN)C(=O)NCC(=O)N[C@@H](CCCNC(=N)N)C(=O)NCCCCCC(=O)N[C@@H](CSC1CC(=O)N(CCNC(=O)CN2CCN(CC(=O)O)CCN(CC(=O)O)CCN(CC(=O)O)CC2)C1=O)C(N)=O)C(C)C (stereo partly drawn) (64Cu complex, metal not drawn) [L-GLP-1, [Ala^8]GLP-1-Ahx-Cys]
tissue uptake at 20 min ([2]; % ID/g blood): 0.78 ± 0.14 %ID/g | tissue uptake at 1 h ([2]; % ID/g blood): 0.47 ± 0.03 %ID/g | tissue uptake at 4 h ([2]; % ID/g blood): 0.62 ± 0.15 %ID/g | tissue uptake at 24 h ([2]; % ID/g blood): 0.07 ± 0.07 %ID/g | tissue uptake at 20 min ([2]; % ID/g fat): 0.35 ± 0.1 %ID/g | tissue uptake at 4 h ([2]; % ID/g fat): 0.72 ± 0.57 %ID/g | tissue uptake at 24 h ([2]; % ID/g fat): 0.01 ± 0.01 %ID/g | tissue uptake at 20 min ([2]; % ID/g heart): 0.39 ± 0.23 %ID/g | tissue uptake at 1 h ([2]; % ID/g heart): 0.11 ± 0.1 %ID/g | tissue uptake at 4 h ([2]; % ID/g heart): 0.2 ± 0.06 %ID/g | tissue uptake at 20 min ([2]; % ID/g kidney): 30.6 ± 6.76 %ID/g | tissue uptake at 1 h ([2]; % ID/g kidney): 34.3 ± 5.42 %ID/g | tissue uptake at 4 h ([2]; % ID/g kidney): 41.4 ± 4.98 %ID/g | tissue uptake at 24 h ([2]; % ID/g kidney): 45.8 ± 2.94 %ID/g | tissue uptake at 20 min ([2]; % ID/g large int): 0.19 ± 0.1 %ID/g | tissue uptake at 1 h ([2]; % ID/g large int): 0.04 ± 0.04 %ID/g | tissue uptake at 4 h ([2]; % ID/g large int): 0.67 ± 0.47 %ID/g | tissue uptake at 24 h ([2]; % ID/g large int): 4.83 ± 1.16 %ID/g | tissue uptake at 20 min ([2]; % ID/g liver): 1.13 ± 0.42 %ID/g | tissue uptake at 1 h ([2]; % ID/g liver): 2.03 ± 0.25 %ID/g | tissue uptake at 4 h ([2]; % ID/g liver): 3.34 ± 0.58 %ID/g | tissue uptake at 24 h ([2]; % ID/g liver): 1.43 ± 0.21 %ID/g | tissue uptake at 20 min ([2]; % ID/g lung): 1.92 ± 0.08 %ID/g | tissue uptake at 1 h ([2]; % ID/g lung): 0.9 ± 0.14 %ID/g | tissue uptake at 4 h ([2]; % ID/g lung): 1.02 ± 0.13 %ID/g | tissue uptake at 24 h ([2]; % ID/g lung): 0.83 ± 0.18 %ID/g | tissue uptake at 20 min ([2]; % ID/g muscle): 0.12 ± 0.01 %ID/g | tissue uptake at 24 h ([2]; % ID/g muscle): 0.08 ± 0.1 %ID/g | tissue uptake at 20 min ([2]; % ID/g pancreas): 0.34 ± 0.14 %ID/g | tissue uptake at 1 h ([2]; % ID/g pancreas): 0.11 ± 0.11 %ID/g | tissue uptake at 4 h ([2]; % ID/g pancreas): 0.4 ± 0.56 %ID/g | tissue uptake at 24 h ([2]; % ID/g pancreas): 0.03 ± 0.06 %ID/g | tissue uptake at 20 min ([2]; % ID/g small int): 0.38 ± 0.21 %ID/g | tissue uptake at 1 h ([2]; % ID/g small int): 0.45 ± 0.24 %ID/g | tissue uptake at 4 h ([2]; % ID/g small int): 0.93 ± 0.43 %ID/g | tissue uptake at 24 h ([2]; % ID/g small int): 0.42 ± 0.16 %ID/g | tissue uptake at 20 min ([2]; % ID/g spleen): 0.28 ± 7 %ID/g | tissue uptake at 1 h ([2]; % ID/g spleen): 0.18 ± 0.08 %ID/g | tissue uptake at 4 h ([2]; % ID/g spleen): 0.4 ± 0.35 %ID/g | tissue uptake at 24 h ([2]; % ID/g spleen): 0.38 ± 0.47 %ID/g | tissue uptake at 20 min ([2]; % ID/g stomach): 0.64 ± 0.28 %ID/g | tissue uptake at 1 h ([2]; % ID/g stomach): 0.46 ± 0.28 %ID/g | tissue uptake at 4 h ([2]; % ID/g stomach): 0.5 ± 0.15 %ID/g | tissue uptake at 24 h ([2]; % ID/g stomach): 0.11 ± 0.04 %ID/g
